Reference: US9512212 (ARIZONA BOARD OF REGENTS A BODY CORPORATE OF THE STATE OF …, dated 2016)

Key:
[1] = biological target: T1, β-amyloid (Aβ) (UniProt P05067 672-711, limits assumed); test: not stated (standard affinity maturation)
T1 construct: Aβ is a fragment of it; also called beta amyloid; Ab40

[2] = biological target: T1, β-amyloid (Aβ); test: not stated (clone from standard affinity maturation of H1)

T1 sequence (P05067 672-711 limits assumed): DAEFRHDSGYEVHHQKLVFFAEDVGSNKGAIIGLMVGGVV

fold increase in affinity over the parent H1 scFv [1]: ~5 fold | Kd [2]: 247 nM
B1: H1v2 anti-Ab40 scFv (scFv)
scFv: MAEVQLVESGGGVVRPGGSLRLSCAASGFTFDDYGMSWVRQAPGKGLEWVSGINWNGGSTGYADSVKGRFTISRDNAKNSLYLQMNSLRAEDTAVYYCARRRYALDYWGQGTLVTVSRGGGGSGGGGSGGGGSSELTQDPAVSVALGQTVRITCQGDSLRSYYASWYQQKPGQAPVLVIYGKNNRPSGIPDRFSGSSSGNTASLTITGAQAEDEADYYCNSRDSSGNHVVFGGGTKLTVLG
notes: also called H1v2 clone
